{
  "source": "patent US11479601B2",
  "about": "“Antibodies specific to Sonic Hedgehog and method of use thereof” (The Regents of the University of California, priority 2016, dated 2022)",
  "molecules": {"B1": {"name": "2G4: purified mouse monoclonal C-terminal Shh antibody from hybridoma sub-clone 2G4 of clone 1C11, IgG1 kappa (antibody, V domains shown)", "VH": "EVKLVESGGGLVKPGGSLKLSCAASGFTFSSYTMSWVRQTPAKRLEWVATISSGGGNTYYPDSVKGRFTISRDNARNTLYLQMSSLRSEDTAMYYCARDYRSLFAYWGQGTLVTVSA", "VL": "QIVLTQSPAIMSASPGEKVTITCSASSSVSYMHWFQQKPGTSPKLWIYSTSNLASGVPARFSGSGSGTSYSLTISRMEAEDAATYYCQQRSSYPFTFGSGTKLEIK"}},
  "key": {"[1]": {"system": "A549 cell subcutaneous xenograft tumor", "assay": "A549 subcutaneous xenograft, intra-tumor injection of C-terminal Shh antibody", "type": "in vivo, mice", "description": "For xenograft formation, female nude mice, 5 to 10 weeks old, were injected subcutaneously (SC) with 10 million A549 cells in the dorsal area in a volume of […]. For SC inoculation of sorted cells, 1,500 cells of A549 Shh+ or Shh− cells were injected in a volume of […]. For intra-veinous injection of sorted cells, 1,000 cells of A549 Shh+ or Shh− cells were injected in the tail vein. For the in vivo treatment assay, after xenograft formation, animals were injected intravenously with cisplatin (10 mg/kg weekly), docetaxel (10 mg/kg twice a week) or vehicle, and intraperitoneally with GDC0449 (20 mg/kg daily) or vehicle. Each group consisted in 4-5 mice. Tumor size was determined twice a week, and tumor volumes were calculated using width (x) and length (y) (x^2y/2, where x<y). Tumors were collected after mice euthanasia, and cell dissociation was performed as for fresh human samples (cf supra). Flow cytometry and FACS were done as described supra. All animals were cared in accord with University of California San Francisco (UCSF) guidelines.\n(§1) The in vivo effect of the C-terminal Shh antibodies were tested using the A549 cell subcutaneous xenograft tumor model in mice, as described in Example 1. After xenograft formation, animals were intra-tumor injected with a C terminal Shh antibody (2G4 or 2D9; each at 158 μg), or a control solution, 3 times a week for about 3 weeks (at 2-3 day intervals). Tumor volume was determined, as described in Example 1, every 2 days. Weight and size of the excised tumor were determined after the antibody treatment. A portion of the excised tumor was sectioned for immunohistochemical analysis of Shh protein expression, and RNA was extracted from another portion of the excised tumor for analysis of Gli1 expression."}, "A549 cells": {"system": "A549 cells", "assay": "Viability of A549 cells treated with Shh antibodies ± GLI inhibitor 249C", "type": "cell-based, human", "settings": "for Cell viability of A549 cells: 249C at 40 nM where added", "description": "The effect of the C-terminal Shh antibodies from clones 2G4 and 2D9 on the viability of A549 cells was determined. A549 cells were exposed to increasing concentrations of the C-terminal Shh antibodies (2G4, 2D9), or antibodies against the N-terminal portion of Shh protein (6D3, 2E1), and the effective dose (ED50) was determined (assay 1: FIG. 16A; assay 2: FIG. 16B). […] Possibly due to the fact that very few cells express full-length Shh on the cell surface, the cytotoxic effect of the C-terminal Shh antibodies was not as potent as the cytotoxic effect of the N-terminal antibodies.\nNext, the cytotoxicity of the C-terminal Shh antibodies was tested when the antibodies were used in conjunction with a small-molecule inhibitor of GLI zinc-finger transcription factor signaling, 249C (4-(5-chlorofuran-2-yl)-1,3-bis(2,4-difluorophenyl)-5-methyl-N-((4-methylmorpholin-2-yl)methyl)-4,5-dihydro-1H-pyrazole-5-carboxamide; Compound 135 above). A549 cells were exposed to varying concentrations of the C-terminal antibodies (2G4, 2D9) or the N-terminal antibodies (6D3, 2E1), in the presence or absence of a very low dose (40 nM) of 249C. (The IC50 of 249C in A549 cells is ˜70 nM.)"}, "GLI": {"system": "GLI", "assay": "Ex vivo GLI expression in excised A549 xenograft tumors", "set-up": "species or system mice", "settings": "tumors after 8 mg/kg treatment, versus IgG controls", "description": "The in vivo effect of the C-terminal Shh antibodies were tested using the A549 cell subcutaneous xenograft tumor model in mice, as described in Example 1. After xenograft formation, animals were intra-tumor injected with a C terminal Shh antibody (2G4 or 2D9; each at 158 μg), or a control solution, 3 times a week for about 3 weeks (at 2-3 day intervals). Tumor volume was determined, as described in Example 1, every 2 days. Weight and size of the excised tumor were determined after the antibody treatment. […]\nTotal protein from whole-cell lysates was prepared with M-PER buffer (ThermoFisher Scientific) and from frozen tissues with T-PER (ThermoFisher Scientific) supplemented with protease and phosphatase inhibitors (Roche). Subsequently protein concentrations were determined via a Bradford assay. Equal quantities of proteins were combined with 5× protein loading buffer and separated by SDS-PAGE followed by PVDF membrane transfer. […]\nAntibody-treated tumors were harvested to extract total RNA using Trizol (Invitrogen) and cDNA was synthesized using reverse transcriptase from iScript's cDNA Synthesis Kit (Bio-Rad). Real-time quantitative reverse transcript-polymerase chain reaction (qRT-PCR) was performed with TaqMan® Universal PCR Master Mix (Life Technologies) using gene specific PCR primers for human […] (Life Technologies). […]"}, "Shh protein": {"system": "Shh protein", "assay": "Ex vivo Shh staining of excised A549 xenograft tumors", "type": "in vivo, mice", "description": "as §1\nControl IgG and Ab 1C11-2G4-treated A549 tumors harvested from mice were sectioned ([…]) and stained with a commercially available Sonic Hedgehog (Shh) antibody (Abcam 53281, 1:100) post acetone fixation, 0.2% Triton-X 100 permeabilization and serum blocking steps. A FITC-conjugated secondary antibody (1:1000) and […] DAPI (Vector Laboratories) mounting medium were used to stain sections prior to imaging at 20× magnification using a Zeiss Axiolmager 2 fluorescence microscope. Captured images were processed via ImageJ software (available at https://imagej.nih.gov/ij/download.html) and representative images are presented.\nTo assess the effects of antibody administration on hedgehog epitope occupancy, tumors were sectioned and stained with a commercial antibody specific for sonic hedgehog (Shh). […] Confirmatory results were observed when ground up permeabilized tumor cells were labeled with the commercially available Shh antibody and assessed using flow cytometry; 1C11-2G4-treated tumors (20%-Shh-labeled) contrasted with IgG controls (80%-Shh-labeled) (FIG. 46B)."}},
  "note": "Where “and” joins values, the source holds several entries; their conditions need not be identical. Equal entries are not always repeated.",
  "data": [
    {"molecule": "B1", "values": [
      {"measurement": "Average % change in tumor volume, relative to day −2", "setting": "[1]; Day 0", "value": 104.50, "unit": "%"},
      {"measurement": "Average change in tumor volume", "setting": "[1]; Day 0, 158 μg intra-tumor 3 times a week", "value": 14.6, "unit": "mm^3"},
      {"measurement": "Average % change in tumor volume, relative to day −2", "setting": "[1]; Day 2", "value": 90.20, "unit": "%"},
      {"measurement": "Average change in tumor volume", "setting": "[1]; Day 2", "value": "−21.7", "unit": "mm^3"},
      {"measurement": "Average % change in tumor volume, relative to day −2", "setting": "[1]; Day 5", "value": 103.10, "unit": "%"},
      {"measurement": "Average change in tumor volume", "setting": "[1]; Day 5", "value": 15.3, "unit": "mm^3"},
      {"measurement": "Average % change in tumor volume, relative to day −2", "setting": "[1]; Day 7", "value": 105.80, "unit": "%"},
      {"measurement": "Average change in tumor volume", "setting": "[1]; Day 7", "value": 33.5, "unit": "mm^3"},
      {"measurement": "Average % change in tumor volume, relative to day −2", "setting": "[1]; Day 12", "value": 121.90, "unit": "%"},
      {"measurement": "Average change in tumor volume", "setting": "[1]; Day 12", "value": 103, "unit": "mm^3"},
      {"measurement": "Average % change in tumor volume, relative to day −2", "setting": "[1]; Day 14", "value": 137.70, "unit": "%"},
      {"measurement": "Average change in tumor volume", "setting": "[1]; Day 14", "value": 138.2, "unit": "mm^3"},
      {"measurement": "Average % change in tumor volume, relative to day −2", "setting": "[1]; Day 16", "value": 148, "unit": "%"},
      {"measurement": "Average change in tumor volume", "setting": "[1]; Day 16", "value": 174.04, "unit": "mm^3"},
      {"measurement": "Average % change in tumor volume, relative to day −2", "setting": "[1]; Day 19", "value": 189.60, "unit": "%"},
      {"measurement": "Average change in tumor volume", "setting": "[1]; Day 19", "value": 277.7, "unit": "mm^3"},
      {"measurement": "Average % change in tumor volume, relative to day −2", "setting": "[1]; Day 21", "value": 202.40, "unit": "%"},
      {"measurement": "Average change in tumor volume", "setting": "[1]; Day 21", "value": 337.8, "unit": "mm^3"},
      {"measurement": "Average % change in tumor volume, relative to day −2", "setting": "[1]; Day −2", "value": 100, "unit": "%"},
      {"measurement": "Weight of tumor after treatment, AVG", "setting": "[1]; average of 3 animals", "value": 0.0644},
      {"measurement": "Weight of tumor after treatment", "setting": "[1]; individual animals", "value": "0.048 and 0.0966 and 0.0486"},
      {"measurement": "Cell viability of A549 cells", "setting": "A549 cells; Ab conc. 32 ng/mL", "value": 99, "unit": "%"},
      {"measurement": "Cell viability of A549 cells", "setting": "A549 cells; Ab conc. 64 ng/mL", "value": 95, "unit": "%"},
      {"measurement": "Cell viability of A549 cells", "setting": "A549 cells; Ab conc. 128 ng/mL", "value": 91, "unit": "%"},
      {"measurement": "synergy with a GLI inhibitor in reducing viability of non-small cell lung cancer cells", "setting": "A549 cells; with 249C at 40 nM", "value": "act synergistically"},
      {"measurement": "GLI transcripts (qRT-PCR) and GLI polypeptide expression (Western blot) in tumors", "setting": "GLI", "value": "significant reduction in GLI transcripts"},
      {"measurement": "cells expressing Shh protein in excised tumor (immunostaining)", "setting": "Shh protein; intra-tumor antibody 158 μg, compared to control tumor samples", "value": "fewer cells expressing Shh protein"},
      {"measurement": "number of Shh-labeled cells in permeabilized tumor sections (immunofluorescence)", "setting": "Shh protein; tumors after 8 mg/kg treatment, versus IgG controls", "value": "significant reduction in the number of Shh-labeled cells"},
      {"measurement": "Shh-labeled cells in ground up permeabilized tumor cells (flow cytometry, commercial Shh antibody)", "setting": "Shh protein; tumors after 8 mg/kg treatment, IgG controls 80%", "value": 20, "unit": "%"}
    ]}
  ]
}
